Results as given in patent US20070099268A1, “Chimeric HCN channels” (priority 2005, published 2007).
Entries after “also recorded” stand apart in the source; their conditions may differ.

Key:
AdHCN2 infected culture = test: Modulation of spontaneous rate by drugs in an AdHCN2 infected culture; type: cell-based, rat; conditions: superfusion with drug; control record of same culture 48, 54 and 96 beats/min respectively
[1] = system: cell-free patches from Xenopus oocytes; conditions: binding of cAMP to the CNBD; cited from earlier work
Xenopus oocytes = test: Two-microelectrode voltage clamp of mHCN2 and mE324A expressed in Xenopus oocytes; type: cell-based, Xenopus laevis
Protocol: Oocytes were prepared from mature female Xenopus laevis in accordance with an approved protocol as previously described (Yu et al., 2004).
For expression of HCN in Xenopus oocytes, oocytes were injected with 5 ng of cRNA made from mouse wild-type mHCN2 and mutant mHCN2 (E324A) plasmids. Injected oocytes were incubated at 18° C. for 24-48 h prior to electrophysiological analysis.
For measurements in Xenopus oocytes, oocytes were voltage-clamped using a two-microelectrode voltage clamp technique. The extracellular recording solution (OR2) contained (in mM): NaCl, 80; KCl, 2; MgCl2, 1; and Na-HEPES, 5 (pH 7.6). For the recording of steady state activation of expressed Wt mHCN2, currents were elicited by 2-s long hyperpolarizing pulses between −30 mV and −160 mV with 10 mV increments, followed by a 1-s depolarizing pulse to +15 mV. The holding potential was −30 mV. As to the mHCN2 (E324A), currents were elicited by 3-s-long hyperpolarizing pulses between +20 mV and −130 mV with 10 mV increments, followed by a 1 second depolarizing pulse to +50 mV. The holding potential was +20 mV. To construct the current/voltage relationship for wildtype (Wt) mHCN2, the cell was held at […], the current was elicited by a 2-s hyperpolarizing voltage step to −140 mV to saturate activation, and followed by 2-s depolarizing voltage steps between […] and +50 mV in 10 mV increments. For mHCN2 (E324A), the cell was held at +20 mV, current was elicited by a 1.5-s hyperpolarizing voltage step to −110 mV to saturate activation, and then followed by 1.5-s depolarizing voltage steps between −80 mV and +50 mV in 10 mV increments for the recording of tail currents. To record the current amplitudes for Wt mHCN2, the current was evoked by applying a 3-s hyperpolarizing voltage pulse to −120 mV from a holding potential of −30 mV. For mHCN2 (E324A), the current was evoked by applying a 3-s hyperpolarizing voltage pulse to −120 mV from a holding potential of +20 mV.

C[N+](C)(C)CCOC(N)=O [carbachol]
spontaneous rate during drug exposure (AdHCN2 infected culture): 45 beats/min

CCN(c1ccccc1)c1cc(=NC)n(C)c(C)n1.Cl [ZD-7288]
spontaneous rate during drug exposure (AdHCN2 infected culture): 78 beats/min

B1: HCN1: mouse HCN1 channel isoform (protein)
chain: MEGGGKPNSASNSRDDGNSVFPSKAPATGPVAADKRLGTPPGGGAAGKEHGNSVCFKVDGGGGEEPAGSFEDAEGPRRQYGFMQRQFTSMLQPGVNKFSLRMFGSQKAVEKEQERVKTAGFWIIHPYSDFRFYWDLIMLIMMVGNLVIIPVGITFFTEQTTTPWIIFNVASDTVFLLDLIMNFRTGTVNEDSSEIILDPKVIKMNYLKSWFVVDFISSIPVDYIFLIVEKGMDSEVYKTARALRIVRFTKILSLLRLLRLSRLIRYIHQWEEIFHMTYDLASAVVRIFNLIGMMLLLCHWDGCLQFLVPLLQDFPPDCWVSLNEMVNDSWGKQYSYALFKAMSHMLCIGYGAQAPVSMSDLWITMLSMIVGATCYAMFVGHATALIQSLDSSRRQYQEKYKQVEQYMSFHKLPADMRQKIHDYYEHRYQGKIFDEENILSELNDPLREEIVNFNCRKLVATMPLFANADPNFVTAMLSKLRFEVFQPGDYIIREGAVGKKMYFIQHGVAGVITKSSKEMKLTDGSYFGEICLLTKGRRTASVRADTYCRLYSLSVDNFNEVLEEYPMMRRAFETVAIDRLDRIGKKNSILLQKFQKDLNTGVFNNQENEILKQIVKHDREMVQAIPPINYPQMTALNCTSSTTTPTSRMRTQSPPVYTATSLSHSNLHSPSPSTQTPQPSAILSPCSYTTAVCSPPIQSPLATRTFHYASPTASQLSLMQQPQQQLPQSQVQQTQTQTQQQQQQQQQQQQQQQQQQQQQQQQQQQQQQQQQQQQQPQTPGSSTPKNEVHKSTQALHNTNLTKEVRPLSASQPSLPHEVSTLISRPHPTVGESLASIPQPVAAVHSTGLQAGSRSTVPQRVTLFRQMSSGAIPPNRGVPPAPPPPAAVQRESPSVLNTDPDAEKPRFASNL
shift of activation curve to more positive potentials by cAMP [1]: 4 mV

B2: mE324A: mHCN2 with glutamate at position 324 mutated to alanine (protein, UniProt O88703 1-863, looked up, variant E324A)
Potassium/sodium …: MDARGGGGRPGDSPGTTPAPGPPPPPPPPAPPQPQPPPAPPPNPTTPSHPESADEPGPRARLCSRDSACTPGAAKGGANGECGRGEPQCSPEGPARGPKVSFSCRGAASGPSAAEEAGSEEAGPAGEPRGSQASFLQRQFGALLQPGVNKFSLRMFGSQKAVEREQERVKSAGAWIIHPYSDFRFYWDFTMLLFMVGNLIIIPVGITFFKDETTAPWIVFNVVSDTFFLMDLVLNFRTGIVIEDNTEIILDPEKIKKKYLRTWFVVDFVSSIPVDYIFLIVEKGIDSEVYKTARALRIVRFTKILSLLRLLRLSRLIRYIHQWAEIFHMTYDLASAVMRICNLISMMLLLCHWDGCLQFLVPMLQDFPSDCWVSINNMVNHSWSELYSFALFKAMSHMLCIGYGRQAPESMTDIWLTMLSMIVGATCYAMFIGHATALIQSLDSSRRQYQEKYKQVEQYMSFHKLPADFRQKIHDYYEHRYQGKMFDEDSILGELNGPLREEIVNFNCRKLVASMPLFANADPNFVTAMLTKLKFEVFQPGDYIIREGTIGKKMYFIQHGVVSVLTKGNKEMKLSDGSYFGEICLLTRGRRTASVRADTYCRLYSLSVDNFNEVLEEYPMMRRAFETVAIDRLDRIGKKNSILLHKVQHDLSSGVFNNQENAIIQEIVKYDREMVQQAELGQRVGLFPPPPPPQVTSAIATLQQAVAMSFCPQVARPLVGPLALGSPRLVRRAPPGPLPPAASPGPPAASPPAAPSSPRAPRTSPYGVPGSPATRVGPALPARRLSRASRPLSASQPSLPHGVPAPSPAASARPASSSTPRLGPAPTARTAAPSPDRRDSASPGAASGLDPLDSARSRLSSNL
activation threshold (Xenopus oocytes): around −30 mV | slope (s) with cAMP (Xenopus oocytes; 8-Br-cAMP 1 mM): 19.7 mV | Vh with cAMP (Xenopus oocytes; 8-Br-cAMP 1 mM extracellular): −48.9 mV | effect of Cs+ on inward current (Xenopus oocytes; Cs+ 5 mM): blocked; also recorded: large inhibition | slope (s), control (Xenopus oocytes; control): 15.2 mV | reversal potential of IHCN2 (Xenopus oocytes; fully activated current/voltage relation): ~−40 mV | half maximal activation (Vh), control (Xenopus oocytes; oocytes, control): −57.3 mV | induced current (Xenopus oocytes; single voltage pulse to −120 mV): 579.8±18.2 nA
